Measured values reported in publication PMC7195466, “A common allosteric mechanism regulates homeostatic inactivation of auxin and gibberellin” (Nature Communications, 2020).

Tests used:
[1] = biological target: Oryza sativa dioxygenase for auxin oxidation (OsDAO) (rice (Oryza sativa)) (UniProt Q7XKU5)
[2] = substrate: C=C1C[C@]23C[C@H]1CC[C@H]2[C@@]12CC[C@H](O)[C@@](C)(C(=O)O1)[C@H]2[C@@H]3C(=O)O; experiment: GC-SIM-MS of GA34; type: biochemical, Oryza sativa; conditions: multimer forms measured separately (monomer, dimer, tetramer); same
Description: GC-SIM-MS of GA34 on OsGA2ox3 (GA 2-oxidase 3) | The […]/[…]-tetramer affected both the Km and the Vmax values

[3] = substrate: C=C1C[C@]23C[C@H]1CC[C@H]2[C@@]12CC[C@H](O)[C@@](C)(C(=O)O1)[C@H]2[C@@H]3C(=O)O; experiment: GC-SIM-MS of GA34; type: biochemical, Oryza sativa; conditions: multimer forms measured separately; Methods print Cys187 instead of C186; same
Description: GC-SIM-MS of GA34 on OsGA2ox3 (GA 2-oxidase 3) | whereas the […]/[…] monomer affected only the Km

B1: Oryza sativa dioxygenase for auxin oxidation (OsDAO) (enzyme)
chain: MVEIPAIDLRLAGGGGGAEETARLRDACARLGCFRVSGHGVPPGLQAEMKAAVRALFDLPDDAKRRNADIIPGSGYVPPGTANPLYEAFGLCDAAAPADVDAFCARLDAPPHVRETVKAYAERMHSLIVDVAGKVAASLGLHGASFQDWPCQFRMNRYNYTQDSVGSPGVQVHTDSGFLTVLQEDECVGGLEVLDPAAGEFVPVDPLPGSFVVNVGDVGQAWSNGRLHNVKHRVQCVAAVPRVSIAMFLLAPKDDTVSAPGELVDGEHPRRYREFKYDDYRRLRLSTGERAGEALARLAA
- Vmax of the dimer against the monomer (forms separated by gel filtration) [1]: 22 fold

B2: OsGA2ox3 (GA 2-oxidase 3) (Oryza sativa Japonica Group; F100A/R97A) (protein)
chain: MVVLAGPPAVDHIPLLRSPDPGDVFSGVPVVDLGSPGAARAVVDACERYGFFKVVNHGVATDTMDKAESEAVRFFSQTQPDKDRSGPAYPFGYGSKAIGANGDMGWLEYLLLALDDASLADACTVPSCAVFRAALNEYISGVRKVAVRVMEAMSEGLGIAQADALSALVTAEGSDQVFRVNHYPPCRALQGLGCSVTGFGEHTDPQLVSVLRSNGTSGLQIALRDGQWVSVPSDRDSFFVNVGDSLQVLTNGRFKSVKHRVVANSLKSRVSFIYFGGPPLAQRIAPLPQLLGEGEQSLYKEFTWDEYKKAAYKSRLGDNRLAQFEKK
notes: full-length coding region in pGEX6P1, GST tag cut off with PreScission protease, E. coli Rosetta (DE3) pLysS; monomer, homotetramer with GA4
- Km [2]: 0.52 ± 0.10 (tetramer) μM

B3: OsGA2ox3 (GA 2-oxidase 3) (Oryza sativa Japonica Group; C186A/W106A) (protein)
chain: MVVLAGPPAVDHIPLLRSPDPGDVFSGVPVVDLGSPGAARAVVDACERYGFFKVVNHGVATDTMDKAESEAVRFFSQTQPDKDRSGPAYPFGYGSKRIGFNGDMGALEYLLLALDDASLADACTVPSCAVFRAALNEYISGVRKVAVRVMEAMSEGLGIAQADALSALVTAEGSDQVFRVNHYPPARALQGLGCSVTGFGEHTDPQLVSVLRSNGTSGLQIALRDGQWVSVPSDRDSFFVNVGDSLQVLTNGRFKSVKHRVVANSLKSRVSFIYFGGPPLAQRIAPLPQLLGEGEQSLYKEFTWDEYKKAAYKSRLGDNRLAQFEKK
notes: as for B2
- Km [3]: 5.41 ± 0.96 (monomer) μM
